We go through 1 protein from patent US20250320465A1 (FLAGSHIP PIONEERING INNOVATIONS V, published 2025).

The data set deals with the molecule itself. The data set can be described thus: structure of the VLP (self-assembly).

B1: Ring10-ORF1delCterm Helix (Ring10 ORF1 with a deletion of the C-terminus amino acids 610-672) VLP from Expi293 cells (other)
chain: MPWWYRRRSYNPWRRRNWFRRPRKTIYRRYRRRRRWVRRKPFYKRKIKRLNIVEWQPKSIRKCRIKGMLCLFQTTEDRLSYNFDMYEESIIPEKLPGGGGFSIKNISLYALYQEHIHAHNIFTHTNTDRPLARYTGCSLKFYQSKDIDYVVTYSTSLPLRSSMGMYNSMQPSIHLMQQNKLIVPSKQTQKRRKPYIKKHISPPTQMKSQWYFQHNIANIPLLMIRTTALTLDNYYIGSRQLSTNVTIHTLNTTYIQNRDWGDRNKTYYCQTLGTQRYFLYGTHSTAQNINDIKLQELIPLTNTQDYVQGFDWTEKDKHNITTYKEFLTKGAGNPFHAEWITAQNPVIHTANSPTQIEQIYTASTTTFQNKKLTDLPTPGYIFITPTVSLRYNPYKDLAERNKCYFVRSKINAHGWDPEQHQELINSDLPQWLLLFGYPDYIKRTQNFALVDTNYILVDHCPYTNPEKTPFIPLSTSFIEGRSPYSPSDTHEPDEEDQNRWYPCYQYQQESINSICLSGPGTPKIPKGITAEAKVKYSFNFKWGGDLPPMSTITNPTDQPTYVVPNNFNETTSLQNPTTRPEHFLYSFDERRGQLTEKATKRLLKDWETK
notes: also called Ring10-ORF1 delCterm-Helix (Δ610-672) (7052)
On to B1, for which the binding result was “binds”.
